Assay results published in patent US20040018971A1 (published 2004).
Blank lines part the entries; values can stand above or below the binder they belong to.

Legend:
HLA-A*1101 [1] = molecular target: HLA-A*1101 (human); experiment: competition with 125I-labelled probe peptide for purified HLA-A*1101, gel filtration; standard peptide 940.06 [..] (6.0 nM)
HLA-A*1101 [2] = molecular target: HLA-A*1101 (human); experiment: competition with 125I-labelled probe peptide on purified HLA-A*1101, relative to standard peptide 940.06
HLA-A*0101 = molecular target: T1, HLA-A*0101 (human); experiment: competition with 125I-labelled probe peptide for purified HLA-A*0101, gel filtration; ratio = IC50 of standard peptide 944.02 / IC50 of test peptide
T1 construct: also called HLA-A1

[3] = molecular target: T2, HLA-A*0201 (purified HLA class I molecule) (human); experiment: competition with 125I-labelled standard peptide for purified HLA, gel filtration
T2 construct: also called HLA-A2.1

HLA-A*0301 = molecular target: T3, HLA-A*0301 (human); experiment: inhibition of 125I-labelled probe peptide binding to purified HLA-A*0301, gel filtration; ratio to standard peptide 941.12 ([..], 11 nM)
T3 construct: also called HLA-A3

Binder: LIQRNPQLCY [HER2/neu peptide, position 154, 10 amino acids]
relative binding ratio (HLA-A*1101 [1]): 0.0002 ratio (IC50 of standard peptide / IC50 of test peptide)

Binder: SSEDCQSLTR (Synthetic peptide) [HER2/neu peptide, position 208, 10 amino acids]
relative binding ratio (HLA-A*1101 [2]): 0.002 ratio (IC50 of standard peptide / IC50 of test peptide)

Binder: RGTQLFEDNY (Synthetic peptide) [HER2/neu peptide, position 103, 10 amino acids]
relative binding ratio (HLA-A*1101 [2]): 0.0015 ratio (IC50 of standard peptide / IC50 of test peptide)

Binder: LMTFGAKPY [HER2/neu peptide, position 915, 9 amino acids]
relative binding ratio (HLA-A*1101 [1]): 0.0003 ratio (IC50 of standard peptide / IC50 of test peptide)

B3: HER2/neu peptide, position 711, 10 amino acids (peptide)
peptide: QMRILKETEL
notes: Synthetic peptide; also called HER2/neu 711-720
relative binding ratio (IC50 of standard peptide / IC50 of test peptide) [3]: 0.0001 ratio

Binder: PLQPEQLQV (Synthetic peptide) [HER2/neu peptide, position 391, 9 amino acids]
relative binding ratio (IC50 of standard peptide / IC50 of test peptide) [3]: 0.0002 ratio

Binder: PVTGASPGGL (Synthetic peptide) [HER2/neu peptide, position 128, 10 amino acids]
relative binding ratio (IC50 of standard peptide / IC50 of test peptide) [3]: 0.0001 ratio

B5: HER2/neu peptide, position 54, 9 amino acids (peptide)
peptide: QVVQGNLEL
notes: Synthetic peptide; also called HER2/neu 54-62
relative binding ratio (IC50 of standard peptide / IC50 of test peptide) [3]: 0.0001 ratio

Binder: VLVKSPNHVK (Synthetic peptide) [HER2/neu peptide, position 851, 10 amino acids]
relative binding ratio (HLA-A*1101 [2]): 0.0072 ratio (IC50 of standard peptide / IC50 of test peptide)

B6: HER2/neu peptide, position 627, 9 amino acids (peptide)
peptide: PINCTHSCV
notes: Synthetic peptide; also called HER2/neu 627-635
relative binding ratio (IC50 of standard peptide / IC50 of test peptide) [3]: 0.0002 ratio

Binder: LCYQDTILWK [HER2/neu peptide, position 161, 10 amino acids]
relative binding ratio (HLA-A*1101 [1]): 0.0063 ratio (IC50 of standard peptide / IC50 of test peptide)

Binder: HSCVDLDDK [HER2/neu peptide, position 632, 9 amino acids]
relative binding ratio (HLA-A*1101 [1]): 0.0007 ratio (IC50 of standard peptide / IC50 of test peptide)

Binder: ILKETELRK [HER2/neu peptide, position 714, 9 amino acids]
relative binding ratio (HLA-A*1101 [1]): 0.0023 ratio (IC50 of standard peptide / IC50 of test peptide)

Binder: KIPVAIKVLR [HER2/neu peptide, position 747, 10 amino acids]
relative binding ratio (HLA-A*1101 [1]): 0.0099 ratio (IC50 of standard peptide / IC50 of test peptide)

Now from value to binder:

relative binding ratio (HLA-A*1101 [1]): 0.072 ratio (IC50 of standard peptide / IC50 of test peptide)
Binder: HTVPWDQLFR (also called Her2/neu.478) [HER2/neu peptide, position 478, 10 amino acids]

relative binding ratio (HLA-A*1101 [2]): 0.0001 ratio (IC50 of standard peptide / IC50 of test peptide)
Binder: RLLDIDETEY (Synthetic peptide) [HER2/neu peptide, position 868, 10 amino acids]

relative binding ratio (HLA-A*0101): 0.043 ratio
Binder: ETLEEITGY [HER2/neu peptide, position 401, 9 amino acids]

relative binding ratio (IC50 of standard peptide / IC50 of test peptide) [3]: 0.0001 ratio
B1: HER2/neu peptide, position 1119, 10 amino acids (peptide)
peptide: PLPSETDGYV
notes: Synthetic peptide; also called HER2/neu 1119-1128

relative binding ratio (IC50 of standard peptide / IC50 of test peptide) [3]: 0.0006 ratio
B2: HER2/neu peptide, position 828, 9 amino acids (peptide)
peptide: QIAKGMSYL
notes: Synthetic peptide; also called HER2/neu 828-836

relative binding ratio (HLA-A*1101 [2]): 0.005 ratio (IC50 of standard peptide / IC50 of test peptide)
B4: HER2/neu peptide, position printed as 515 (read as 545), 10 amino acids (peptide)
peptide: RVLQGLPREY
notes: The row follows '545; 8 then 545; 10 at the same point

relative binding ratio (IC50 of standard peptide / IC50 of test peptide) [3]: 0.0003 ratio
Binder: PLTSIISAVV (Synthetic peptide) [HER2/neu peptide, position 650, 10 amino acids]

relative binding ratio (HLA-A*1101 [2]): 0.0007 ratio (IC50 of standard peptide / IC50 of test peptide)
Binder: VLIAHNQVR (Synthetic peptide) [HER2/neu peptide, position 84, 9 amino acids]

relative binding ratio (HLA-A*1101 [2]): 0.12 ratio (IC50 of standard peptide / IC50 of test peptide)
Binder: TIDVYMIMVK (Synthetic peptide) [HER2/neu peptide, position 948, 10 amino acids]

relative binding ratio (IC50 of standard peptide / IC50 of test peptide) [3]: 0.0015 ratio
Binder: PLTSIISAV (Synthetic peptide) [HER2/neu peptide, position 650, 9 amino acids]

relative binding ratio (HLA-A*0101): 0.0017 ratio
Binder: PLPSETDGY [HER2/neu peptide, position 1119, 9 amino acids]

relative binding ratio (HLA-A*1101 [1]): 0.0003 ratio (IC50 of standard peptide / IC50 of test peptide)
Binder: LSPGKNGVVK [HER2/neu peptide, position 1173, 10 amino acids]

relative binding ratio (HLA-A*1101 [1]): 0.31 ratio (IC50 of standard peptide / IC50 of test peptide)
Binder: ILWKDIFHK (also called Her2/neu.167) [HER2/neu peptide, position 167, 9 amino acids]

relative binding ratio (HLA-A*0101): 0.0042 ratio
Binder: CVTACPYNY [HER2/neu peptide, position 295, 9 amino acids]

relative binding ratio (IC50 of standard peptide / IC50 of test peptide) (HLA-A*0301): 0.0003
Binder: HADGGKVPIK [HER2/neu peptide, position 878, 10 amino acids]

relative binding ratio (HLA-A*0101): -0.0021 ratio
Binder: TLEEITGY [HER2/neu peptide, position 402, 8 amino acids]

relative binding ratio (IC50 of standard peptide / IC50 of test peptide) [3]: 0.0001 ratio
Binder: RACHPCSPM (Synthetic peptide) [HER2/neu peptide, position 190, 9 amino acids]

relative binding ratio (HLA-A*1101 [1]): 0.14 ratio (IC50 of standard peptide / IC50 of test peptide)
Binder: LLNWCMQIAK [HER2/neu peptide, position 822, 10 amino acids]
